Assay results from article PMC8996214, “Aptamer blocking S-TLR4 interaction selectively inhibits SARS-CoV-2 induced inflammation”.

Tests used:
SARS-CoV-2 spike trimer = SARS-CoV-2 spike trimer (SARS-CoV-2, UniProt P0DTC2); experiment: BLI; details: protein: commercial; tags: His
MERS-CoV spike protein = MERS-CoV spike protein (MERS-CoV, UniProt K9N5Q8 18-1296); experiment: ELISA; details: protein: commercial; chain copies: 3; label: 5'-biotin (BLI, ELISA); Cy3 (flow cytometry); FAM (imaging); G-quadruplex
PDGF-AA = PDGF-AA (UniProt P04085 87-211); experiment: ELISA; details: protein: commercial; chain copies: 2
SARS-CoV-2 spike RBD = SARS-CoV-2 spike RBD (SARS-CoV-2, UniProt P0DTC2 319-541); experiment: ELISA
HCoV-HKU1 spike protein = HCoV-HKU1 spike protein (HCoV-HKU1, UniProt Q5MQD0); experiment: ELISA; details: protein: commercial
SARS-CoV spike protein = SARS-CoV spike protein (SARS-CoV, UniProt P59594 14-1195); experiment: ELISA; details: protein: commercial; chain copies: 3; label: 5'-biotin (BLI, ELISA); Cy3 (flow cytometry); FAM (imaging); G-quadruplex
TLR4 = TLR4 (UniProt O00206 24-631); experiment: ELISA; details: protein: commercial
ACE2 = ACE2 (UniProt Q9BYF1 18-740); experiment: ELISA; details: protein: commercial
Sequence of ACE2 (Q9BYF1 18-740): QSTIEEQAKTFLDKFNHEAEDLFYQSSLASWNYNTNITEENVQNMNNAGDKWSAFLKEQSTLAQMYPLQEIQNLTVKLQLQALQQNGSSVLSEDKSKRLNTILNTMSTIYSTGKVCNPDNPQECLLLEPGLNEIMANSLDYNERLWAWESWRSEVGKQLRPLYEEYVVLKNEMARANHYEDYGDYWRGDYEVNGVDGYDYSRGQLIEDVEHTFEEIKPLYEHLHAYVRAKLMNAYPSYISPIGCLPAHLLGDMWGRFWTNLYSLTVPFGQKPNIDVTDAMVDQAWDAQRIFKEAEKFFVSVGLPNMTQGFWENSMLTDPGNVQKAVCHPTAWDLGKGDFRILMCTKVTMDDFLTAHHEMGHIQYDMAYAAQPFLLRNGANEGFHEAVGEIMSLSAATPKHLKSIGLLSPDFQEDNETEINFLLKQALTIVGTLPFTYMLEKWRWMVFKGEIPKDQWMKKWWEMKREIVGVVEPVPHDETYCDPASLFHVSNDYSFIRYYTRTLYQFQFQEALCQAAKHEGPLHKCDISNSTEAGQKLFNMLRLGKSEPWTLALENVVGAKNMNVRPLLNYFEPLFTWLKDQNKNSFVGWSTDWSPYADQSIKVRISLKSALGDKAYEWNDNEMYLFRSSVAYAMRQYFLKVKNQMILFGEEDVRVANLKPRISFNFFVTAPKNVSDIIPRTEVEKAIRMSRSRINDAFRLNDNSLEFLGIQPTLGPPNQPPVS

Sequence of TLR4 (O00206 24-631): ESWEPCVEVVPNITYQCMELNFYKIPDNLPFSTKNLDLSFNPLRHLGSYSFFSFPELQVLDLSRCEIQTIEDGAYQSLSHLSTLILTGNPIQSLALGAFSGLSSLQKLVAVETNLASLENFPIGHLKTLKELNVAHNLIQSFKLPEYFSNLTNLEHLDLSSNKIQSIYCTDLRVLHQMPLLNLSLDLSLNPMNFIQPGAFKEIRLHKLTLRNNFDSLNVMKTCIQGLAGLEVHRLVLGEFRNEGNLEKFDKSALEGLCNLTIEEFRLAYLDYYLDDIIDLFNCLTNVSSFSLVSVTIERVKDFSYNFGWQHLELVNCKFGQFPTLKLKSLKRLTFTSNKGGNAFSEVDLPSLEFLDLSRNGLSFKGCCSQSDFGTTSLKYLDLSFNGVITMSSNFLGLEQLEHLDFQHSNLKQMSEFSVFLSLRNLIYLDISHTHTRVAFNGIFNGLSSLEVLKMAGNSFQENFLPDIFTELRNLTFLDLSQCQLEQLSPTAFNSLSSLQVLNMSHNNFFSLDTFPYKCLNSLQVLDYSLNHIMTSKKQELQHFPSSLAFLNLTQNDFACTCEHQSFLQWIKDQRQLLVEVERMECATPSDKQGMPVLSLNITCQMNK
Sequence of MERS-CoV spike protein (K9N5Q8 18-1296): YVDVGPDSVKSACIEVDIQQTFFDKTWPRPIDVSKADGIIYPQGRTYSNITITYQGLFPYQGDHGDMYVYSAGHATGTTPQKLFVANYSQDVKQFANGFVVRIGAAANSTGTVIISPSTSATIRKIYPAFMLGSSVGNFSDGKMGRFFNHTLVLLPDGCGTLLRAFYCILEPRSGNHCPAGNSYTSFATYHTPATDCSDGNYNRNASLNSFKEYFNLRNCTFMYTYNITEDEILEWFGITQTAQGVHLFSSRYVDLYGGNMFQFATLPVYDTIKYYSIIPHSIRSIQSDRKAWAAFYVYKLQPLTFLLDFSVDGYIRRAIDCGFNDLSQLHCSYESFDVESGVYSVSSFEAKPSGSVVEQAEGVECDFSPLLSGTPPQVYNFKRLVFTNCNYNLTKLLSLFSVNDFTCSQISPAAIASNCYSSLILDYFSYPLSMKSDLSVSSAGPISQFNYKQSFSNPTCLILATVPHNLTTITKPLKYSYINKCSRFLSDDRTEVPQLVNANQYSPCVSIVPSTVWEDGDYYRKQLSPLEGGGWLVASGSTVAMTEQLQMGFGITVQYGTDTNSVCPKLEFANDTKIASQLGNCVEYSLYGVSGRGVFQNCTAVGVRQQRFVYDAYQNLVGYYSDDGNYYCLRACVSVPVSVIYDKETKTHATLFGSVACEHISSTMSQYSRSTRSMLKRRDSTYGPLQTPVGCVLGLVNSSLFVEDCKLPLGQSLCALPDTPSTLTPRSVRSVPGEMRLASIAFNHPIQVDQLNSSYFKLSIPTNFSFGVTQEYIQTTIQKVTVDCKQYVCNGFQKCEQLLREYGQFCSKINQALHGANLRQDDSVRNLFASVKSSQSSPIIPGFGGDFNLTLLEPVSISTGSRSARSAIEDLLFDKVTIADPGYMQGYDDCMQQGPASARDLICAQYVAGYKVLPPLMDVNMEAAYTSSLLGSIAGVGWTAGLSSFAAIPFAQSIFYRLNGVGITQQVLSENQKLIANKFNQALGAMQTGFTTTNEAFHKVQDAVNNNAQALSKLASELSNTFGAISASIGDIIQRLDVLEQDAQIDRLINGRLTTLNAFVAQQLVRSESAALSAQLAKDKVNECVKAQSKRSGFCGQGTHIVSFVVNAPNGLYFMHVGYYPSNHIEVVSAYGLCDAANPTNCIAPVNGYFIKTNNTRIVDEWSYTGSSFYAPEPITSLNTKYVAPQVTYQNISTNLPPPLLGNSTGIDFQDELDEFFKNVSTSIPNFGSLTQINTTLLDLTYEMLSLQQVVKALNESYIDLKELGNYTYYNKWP
Sequence of HCoV-HKU1 spike protein (Q5MQD0 13-1300): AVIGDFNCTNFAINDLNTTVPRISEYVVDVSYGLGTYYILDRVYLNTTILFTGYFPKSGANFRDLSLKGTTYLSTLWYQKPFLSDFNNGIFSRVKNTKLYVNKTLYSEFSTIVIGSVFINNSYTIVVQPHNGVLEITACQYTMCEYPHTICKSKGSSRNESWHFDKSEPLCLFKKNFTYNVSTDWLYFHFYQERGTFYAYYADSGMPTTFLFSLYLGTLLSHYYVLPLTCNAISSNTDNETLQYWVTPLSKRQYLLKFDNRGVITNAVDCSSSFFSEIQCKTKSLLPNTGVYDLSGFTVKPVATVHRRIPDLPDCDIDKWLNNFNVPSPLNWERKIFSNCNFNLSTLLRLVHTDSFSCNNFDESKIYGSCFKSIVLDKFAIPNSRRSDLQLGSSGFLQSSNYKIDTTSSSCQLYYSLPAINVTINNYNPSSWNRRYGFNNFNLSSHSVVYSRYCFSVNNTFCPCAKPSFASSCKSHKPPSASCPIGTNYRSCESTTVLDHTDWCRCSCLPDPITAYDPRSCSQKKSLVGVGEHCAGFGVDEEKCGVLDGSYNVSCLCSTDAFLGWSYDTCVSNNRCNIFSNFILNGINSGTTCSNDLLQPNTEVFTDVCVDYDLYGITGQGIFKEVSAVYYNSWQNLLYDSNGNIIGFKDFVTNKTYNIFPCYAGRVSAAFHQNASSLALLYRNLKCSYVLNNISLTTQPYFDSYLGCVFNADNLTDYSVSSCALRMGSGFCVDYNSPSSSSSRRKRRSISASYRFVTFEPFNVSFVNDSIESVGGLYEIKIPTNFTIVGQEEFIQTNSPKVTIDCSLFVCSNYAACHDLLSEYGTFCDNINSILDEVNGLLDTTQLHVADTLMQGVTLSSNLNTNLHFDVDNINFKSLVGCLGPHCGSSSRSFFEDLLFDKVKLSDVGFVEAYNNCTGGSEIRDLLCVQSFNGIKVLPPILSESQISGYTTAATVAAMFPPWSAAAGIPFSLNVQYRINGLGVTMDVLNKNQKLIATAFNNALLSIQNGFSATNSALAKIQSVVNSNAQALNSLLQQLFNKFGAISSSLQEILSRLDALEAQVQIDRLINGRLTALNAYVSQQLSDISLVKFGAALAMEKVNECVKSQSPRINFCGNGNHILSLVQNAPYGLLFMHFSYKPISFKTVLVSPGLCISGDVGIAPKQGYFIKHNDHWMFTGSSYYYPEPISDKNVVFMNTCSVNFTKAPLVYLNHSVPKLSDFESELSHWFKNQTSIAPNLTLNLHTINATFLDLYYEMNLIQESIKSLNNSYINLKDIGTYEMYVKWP

GGGGAGGGCGGGTGGATTGGATGCCGA (structured_DNA) [ST-6-2]: binds (SARS-CoV-2 spike trimer); no binding (MERS-CoV spike protein); no binding (PDGF-AA). GGGGAGGGCGGGTGGATTGGATGCCGA (structured_DNA) [ST-6-2]: no binding (SARS-CoV-2 spike RBD); no binding (HCoV-HKU1 spike protein); no binding (SARS-CoV spike protein). GGGGAGGGCGGGTGGATTGGATGCCGA (structured_DNA) [ST-6-2]: no binding (TLR4); no binding (ACE2).

B1: ST-6 (structured_DNA)
DNA: AGCAGCACAGAGGTCAGATGAGGGCATCAAAGGGGGGAGGGCGGGTGGATTGGATGCCGACCTATGCGTGCTACCGTGAA
B1: binds (SARS-CoV-2 spike trimer); no binding (MERS-CoV spike protein); no binding (PDGF-AA). B1: no binding (SARS-CoV-2 spike RBD); no binding (HCoV-HKU1 spike protein); no binding (SARS-CoV spike protein). B1: no binding (TLR4); no binding (ACE2).

AGGGCATCAAAGGGGGGAGGGCGGGTGGATTGGATGCCGA (structured_DNA) [ST-6-1]: binds (SARS-CoV-2 spike trimer); no binding (MERS-CoV spike protein); no binding (PDGF-AA). AGGGCATCAAAGGGGGGAGGGCGGGTGGATTGGATGCCGA (structured_DNA) [ST-6-1]: no binding (SARS-CoV-2 spike RBD); no binding (HCoV-HKU1 spike protein); no binding (SARS-CoV spike protein). AGGGCATCAAAGGGGGGAGGGCGGGTGGATTGGATGCCGA (structured_DNA) [ST-6-1]: no binding (TLR4); no binding (ACE2).
